The values that follow come from paper PMC11479942, “XPD stalled on cross-linked DNA provides insight into damage verification”.

In general, Kd refers to the constant that tells how readily two partners part at equilibrium.

Series [1] deals with super-unplugged XPD variant (Chaetomium thermophilum).
Another series addresses T1, XPD wild type (ctXPD) (Chaetomium thermophilum (paper: C. …, UniProt G0RZH0 1-780)).
T1 sequence: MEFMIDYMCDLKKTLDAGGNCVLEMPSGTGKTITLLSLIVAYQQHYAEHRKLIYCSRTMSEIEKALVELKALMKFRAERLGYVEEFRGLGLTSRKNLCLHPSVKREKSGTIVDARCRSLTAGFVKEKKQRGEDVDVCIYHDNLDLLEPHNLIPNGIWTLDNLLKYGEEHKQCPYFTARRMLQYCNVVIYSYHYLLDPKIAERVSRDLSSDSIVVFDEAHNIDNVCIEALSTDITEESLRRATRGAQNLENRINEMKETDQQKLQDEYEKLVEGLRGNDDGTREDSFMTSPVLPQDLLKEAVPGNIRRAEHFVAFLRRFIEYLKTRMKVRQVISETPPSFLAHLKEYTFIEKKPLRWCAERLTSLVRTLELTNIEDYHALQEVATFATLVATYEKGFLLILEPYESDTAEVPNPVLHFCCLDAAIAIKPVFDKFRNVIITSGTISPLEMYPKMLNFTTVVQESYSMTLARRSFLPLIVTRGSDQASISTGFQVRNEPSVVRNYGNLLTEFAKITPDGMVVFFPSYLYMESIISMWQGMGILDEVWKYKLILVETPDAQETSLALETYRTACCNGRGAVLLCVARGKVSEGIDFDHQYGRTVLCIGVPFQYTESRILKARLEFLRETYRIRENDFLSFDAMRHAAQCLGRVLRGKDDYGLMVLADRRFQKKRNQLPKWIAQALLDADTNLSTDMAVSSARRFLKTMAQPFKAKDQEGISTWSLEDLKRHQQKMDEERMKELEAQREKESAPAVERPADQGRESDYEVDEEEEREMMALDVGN
The experiment in a line: fluorescence anisotropy; 5 mM MgCl2, no nucleotide; Fluorescence anisotropy: 20 mM HEPES pH 7.5, 50 mM KCl, 5 mM MgCl2, 1 mM TCEP, 5 nM DNA, room temperature; cryo-EM: same buffer, 10 uM complex, DNA 1.25:1, 5 mM ATP. The conditions noted are these: protein: recombinant; tags: N-terminal 6xHis, TEV site (pBADM-11); label: 5' Cy3; hairpin with 5' overhang. A general note: In fluorescence polarisation assays a small probe gives low polarisation when free and higher when bound to something large.

As for “XPG D924A from Chaetomium thermophilum (enzyme)”, the XPD helicase activity (fluorescence-based, Y-forked DNA 250 nM, XPD–p44 250 nM) with equimolar XPG D924A (250 nM); inhibition by XPG D924A in series [1] stood at 6 fold.
As for TTTTTTTTTTTTTTTCCCGGCCATGCGAAGCATGGCCGTT (structured_DNA) [5' overhang self-annealing hairpin], in the series with XPD wild type (ctXPD), the Kd turned out to be 30 nM.
